Source: patent publication US20160257756A1 (CONSEJO SUPERIOR DE INVESTIGACIONES CIENTIFICAS C S I C, published 2016)

Biological target: T1, human chemokine receptor CCR9 (human, UniProt P51686 1-369, N-glycosylated at Asn32 on cells (removed by PNGase F in some Western blots); the letters do not carry this)
T1 construct: On stably transfected HEK293 cells, endogenous on MOLT-4 cells, thymocytes and blood lymphocytes; also as membrane extracts in Western blots (with or without PNGase F); also called hCCR9; human CCR9
T1 sequence: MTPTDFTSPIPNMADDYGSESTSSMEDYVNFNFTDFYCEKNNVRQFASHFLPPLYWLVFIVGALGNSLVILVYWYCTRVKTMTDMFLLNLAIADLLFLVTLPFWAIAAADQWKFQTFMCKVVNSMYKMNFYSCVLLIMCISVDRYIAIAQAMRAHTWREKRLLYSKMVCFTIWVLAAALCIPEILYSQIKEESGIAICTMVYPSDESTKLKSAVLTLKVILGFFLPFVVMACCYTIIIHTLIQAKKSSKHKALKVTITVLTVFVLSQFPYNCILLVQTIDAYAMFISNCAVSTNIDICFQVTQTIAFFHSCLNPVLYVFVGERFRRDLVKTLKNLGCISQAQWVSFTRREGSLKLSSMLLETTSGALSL
Experiment: flow cytometry on MOLT-4 cells, hCCL25 10 µg/ml before 91R (0.5 µg/ml)
Method: To study whether CCL25 affects CCR9 recognition by 91R, MOLT-4 cells were preincubated alone or with hCCL25, in the presence of sodium azide to inhibit receptor internalization (40 min, 4° C.), followed by incubation with 91R and flow cytometry analysis.

binding result: binds
B1: recombinant human CCL25 (ligand, UniProt O15444 24-150, looked up)
chain: QGVFEDCCLAYHYPIGWAVLRRAWTYRIQEVSGSCNLPAAIFYLPKRHRKVCGNPKSREVQRAMKLLDARNKVFAKLHHNTQTFQAGPHAVKKLSSGNSKLSSSKFSNPISSSKRNVSLLISANSGL
notes: Bought (Peprotech); also called hCCL25; TECK
